As usually defined, the EC50 is the concentration at which the effect is half-maximal.

The source of these data is patent US8822645B2, “Prostaglandin E2 dual variable domain immunoglobulins and uses thereof” (AbbVie Inc., priority 2008, dated 2014).

Series [1] is described as follows: Size exclusion chromatography, percent monomer of parent antibodies and DVD-Ig constructs. The series is classed as physicochemical. On the procedure:
Antibodies were diluted to 2.5 mg/mL with water and […] is analyzed on a Shimadzu HPLC system using a TSK gel G3000 SWXL column (Tosoh Bioscience, cat#k5539-05k). […] The HPLC system operating conditions are the following: […]
Background: SEC sorts molecules by how far they enter the pores of the column.

Series [2] in a line: PGE2-biotinamide ELISA (PGE2 binding). As to conditions: PGE2 VD in C-terminal position, read-out: Direct Bind ELISA C-terminal VD EC50. Put shortly:
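Antibody or DVD-Ig (1 µg/ml) captured on anti-host Fc IgG-coated plates for 1 h at room temperature, then titrated with PGE2-biotinamide serially diluted from 30 nM for 1 h. Binding detected with streptavidin-polyHRP and TMB, absorbance read at 450 nm; EC50 from the titration curve.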

In series [3] the test system is PGE2 / human EP4 receptor in HEK293 Gα16 cells. Description: EP4 bioassay (Ca++ flux, neutralization of PGE2). The class given is cell-based. To be noted: PGE2 VD in C-terminal position; EP4 bioassay, Ca++ flux; read-out: C-terminal VD PGE2 Neutralization EC50. In short, it runs like this: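 Ca++ flux (FLIPR) in HEK293 Gα16 cells stably expressing human EP4, loaded with Ca++-sensitive dye for 90 min. PGE2, alone or pre-incubated with anti-PGE2 antibody, DVD-Ig or isotype control, was added in FLIPR buffer (HBSS, 20 mM HEPES, 0.1% BSA, 2.5 mM probenecid). EC50 derived from PGE2 dose-response.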

B1: DVD152: DVD-Ig construct listed in Table 4 (antibody)
VH: EVQLQESGPGLVRPSQTLSLTCTVSGYSITSDHAWSWVRQPPGRGLEWIGYISYSGITTYNPSLKSRVTMLRDTSKNQFSLRLSSVTAADTAVYYCARSLARTTAMDYWGQGSLVTVSSASTKGPEVQLVQSGAEVKKPGASVKVSCKASGYTFTKYWLGWVRQAPGQGLEWMGDIYPGYDYTHYNEKFKDRVTLTTDTSTSTAYMELRSLRSDDTAVYYCARSDGSSTYWGQGTLVTVSS
VL: DIQMTQSPSSLSASVGDRVTITCRASQDISSYLNWYQQKPGKAPKLLIYYTSRLHSGVPSRFSGSGSGTDFTFTISSLQPEDIATYYCQQGNTLPYTFGQGTKVEIKRTVAAPDVLMTQTPLSLPVTPGEPASISCTSSQNIVHSNGNTYLEWYLQKPGQSPQLLIYKVSNRFSGVPDRFSGSGSGTDFTLKISRVEAEDVGVYYCFQVSHVPYTFGGGTKVEIKR
On to B1, for which the “% Monomer (purity)” value in series [1] came out at 87.6%. The EC50 turned out to be 1.65 nM in series [2] and 0.025 nM in series [3].
